Measured values reported in patent US20110268740A1.

What was measured:
[1] = target: M2e consensus peptide (free, soluble) (Influenza A virus (consensus of H1, H2 and H3 subtypes of human Influenza A viruses)); assay: Friguet ELISA, free M2e peptide in solution
[2] = target: M2e-short (Influenza A virus (consensus)); assay: ELISA, apparent affinity, purified scFv-msFcγ2c on immobilised M2e-short

Row | Binder | Kd [1] | EC50 [2] | EC50 (scFv-E040-msFcγ2c)
1 | scFv-E040-msFcγ2c (Fc fusion) DADPAQAAELVMTQSPDSLAVSLGERATINCKSSQSVLYSSNNENYLAWYQQKPGQPPKLLIYWASTRESGVPDRFSGSGSGTDFTLTINSVQAEDVAVYYCQQYFMTPITFGQGTRLEIKGGSSRSSSSGGGGSGGGGEVQLLESGGALVQPGRSLRLSCRTSGLNFGDYPINWVRQAPGKGLEWVGFIKSKSYGVTTEFAASVEGRFTISRDDSRGIAYLQMNSLKTEDTAVYYCTSSSGFLYYFDYWGQGTLVTVSSASTKGPSVTSGQAGRKLEPRVPITQNPCPPLKECPPCAAPDLLGGPSVFIFPPKIKDVLMISLSPMVTCVVVDVSEDDPDVQISWFVNNVEVHTAQTQTHREDYNSTLRVVSALPIQHQDWMSGKEFKCKVNNRALPSPIEKTISKPRGPVRAPQVYVLPPPAEEMTKKEFSLTCMITGFLPAEIAVDWTSNGRTEQNYKNTATVLDSDGSYFMYSKLRVQKSTWERGSLFACSVVHEGLHNHLTTKTISRSLGK | 0.004 µM | 0.0902 nM | –
2 | SLLTEVETPIRNEWGC (modifications not checked) [M2e-short] | – | – | 35.5 µM
3 | SLLTEVETPIRNEWGCRCNDSSD (modifications not checked) [M2e consensus peptide (free, soluble)] | – | – | 21.3 µM
